The text below walks through data of publication doi:10.1101/447052.

Like-named read-outs stand apart in the source and are kept apart here.

In general, stoichiometry N refers to a count of units in the complex or per binding partner.

Assay [1] deals with portal protein gp19 of phage P68 (S. aureus phage P68). As to the kind of experiment: cryo-EM structure.
The target in assay [2] is tail fiber gp17 of phage P68 (in the virion) (S. aureus phage P68). As to the kind of experiment: cryo-EM structure.
Assay [3] deals with lower collar protein gp18 of phage P68 (S. aureus phage P68). As to the kind of experiment: cryo-EM structure.
Assay [4] has as its target head fiber gp14 of phage P68 (S. aureus phage P68). As to the kind of experiment: cryo-EM structure.
Assay [5] addresses tail fiber protein gp17 of phage P68 (protein used for crystallization) (S. aureus phage P68). Put plainly: crystal structure.

Substance “portal protein gp19 of phage P68 (natural protein)” had a stoichiometry N in assay [1] of 12 subunits.
“tail fiber gp17 of phage P68 (in the virion) (natural protein)”: the stoichiometry N in assay [2] was found to be 3 subunits.
“inner core protein gp22 of phage P68 (natural protein)”: the stoichiometry N in assay [1] (scale: inner core proteins for each portal protein) was 6.
For “lower collar protein gp18 of phage P68 (natural protein)”, the stoichiometry N in assay [3] was 12 subunits.
For “head fiber gp14 of phage P68 (natural protein)”, the stoichiometry N in assay [4] turned out to be 3 subunits.
In the case of “tail fiber protein gp17 of phage P68 (protein used for crystallization) (natural protein)”, the stoichiometry N in assay [5] came to 3 subunits.
